Source: patent publication US20090081200A1

Experiments:
[1] = target: full-length human tissue factor with C-terminal RGS-His6 tag, stably expressed on CHO-K1 cells (human) (UniProt P13726); assay: flow cytometry (FACScan) on stable CHO clone #TF34 expressing full-length hTF; first antibody 10 µg/ml, FITC-labeled goat anti-mouse IgG 1:50
[2] = target: full-length human tissue factor with C-terminal RGS-His6 tag, stably expressed on CHO-K1 cells (human) (UniProt P13726); assay: flow cytometry (FACScan) on stable CHO clone #TF48 expressing full-length hTF; first antibody 10 µg/ml, FITC-labeled goat anti-mouse IgG 1:50

full-length human tissue factor with C-terminal RGS-His6 tag, stably expressed on CHO-K1 cells (human), sequence (P13726 other isoform, or with tags, fused parts or gaps): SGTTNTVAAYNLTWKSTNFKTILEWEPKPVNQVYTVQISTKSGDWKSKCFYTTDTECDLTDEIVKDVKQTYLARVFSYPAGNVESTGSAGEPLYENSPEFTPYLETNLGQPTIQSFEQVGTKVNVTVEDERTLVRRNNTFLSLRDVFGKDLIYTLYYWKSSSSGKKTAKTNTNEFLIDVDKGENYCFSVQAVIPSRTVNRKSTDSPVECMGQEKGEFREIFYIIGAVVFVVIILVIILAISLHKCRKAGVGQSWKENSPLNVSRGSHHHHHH

% Total in marker M1 (negative gate) [1]: 0.42%
% Total in marker M2 (positive gate) [1]: 99.4%
Geo Mean (FL1-H), marker All [1]: 262
Geo Mean (FL1-H), marker M1 [1]: 8.16
Geo Mean (FL1-H), marker M2 [1]: 267
% Total in marker M1 (negative gate) [2]: 0.99%
% Total in marker M2 (positive gate) [2]: 98.9%
Geo Mean (FL1-H), marker All [2]: 168
Geo Mean (FL1-H), marker M1 [2]: 7.54
Geo Mean (FL1-H), marker M2 [2]: 174
Substance: mouse anti-human TF mAb (Calbiochem, Cat. # 612161) (antibody)
